{
  "source": "IntAct's records for PubMed 20080707",
  "parents": {"B1": {"name": "Protein-glutamine gamma-glutamyltransferase 2 (Homo sapiens), P21980 (parent)", "chain": "MAEELVLERCDLELETNGRDHHTADLCREKLVVRRGQPFWLTLHFEGRNYEASVDSLTFSVVTGPAPSQEAGTKARFPLRDAVEEGDWTATVVDQQDCTLSLQLTTPANAPIGLYRLSLEASTGYQGSSFVLGHFILLFNAWCPADAVYLDSEEERQEYVLTQQGFIYQGSAKFIKNIPWNFGQFEDGILDICLILLDVNPKFLKNAGRDCSRRSSPVYVGRVVSGMVNCNDDQGVLLGRWDNNYGDGVSPMSWIGSVDILRRWKNHGCQRVKYGQCWVFAAVACTVLRCLGIPTRVVTNYNSAHDQNSNLLIEYFRNEFGEIQGDKSEMIWNFHCWVESWMTRPDLQPGYEGWQALDPTPQEKSEGTYCCGPVPVRAIKEGDLSTKYDAPFVFAEVNADVVDWIQQDDGSVHKSINRSLIVGLKISTKSVGRDEREDITHTYKYPEGSSEEREAFTRANHLNKLAEKEETGMAMRIRVGQSMNMGSDFDVFAHITNNTAEEYVCRLLLCARTVSYNGILGPECGTKYLLNLNLEPFSEKSVPLCILYEKYRDCLTESNLIKVRALLVEPVINSYLLAERDLYLENPEIKIRILGEPKQKRKLVAEVSLQNPLPVALEGCTFTVEGAGLTEEQKTVEIPDPVEAGEEVKVRMDLLPLHMGLHKLVVNFESDKLKAVKGFRNVIIGPA"}},
  "data": [
    {"variants_of": "B1", "conditions": "with KRT19, P08727", "values": [
      {"variant": "C277V", "effect of a mutation on the interaction": "disrupting interaction"}
    ]}
  ]
}
